Results: article PMC11079166

B1: C-terminal fragment of BBK32 of B. burgdorferi B31 (domain or fragment)
chain: SNRYQSYLEGVKYNVDSAIQTITKIYNTYTLFSTKLTQMYSTRLDNFAKAKAKEEAAKFTKEDLEKNFKTLLNYIQVSVKTAANFVYINDTHAKRKLENIEAEIKTLIAKIKEQSNLYEAYKAIVTSILLMRDSLKEVQGIID

Experiments:
[1] = biological target: complement component C1r (human)
[2] = biological target: CihC of B. recurrentis A17 (aa 20-356) (Borrelia recurrentis A17); test: ELISA; CihC/FbpC orthologs (5 µg/ml) immobilised, increasing plasminogen (0 to 1.5 µM); apparent dissociation constant by non-linear regression, one-site specific binding model
[3] = biological target: CihC/FbpC ortholog of B. parkeri (aa 25-349) (Borrelia parkeri); test: as above
[4] = biological target: CihC/FbpC of B. hermsii FRO (aa 21-374) (Borrelia hermsii FRO); test: as above
[5] = biological target: CihC/FbpC ortholog of B. turicatae (aa 21-363) (Borrelia turicatae); test: as above

| Molecule | IC50 of inhibition of the classical pathway (MAC formation, anti-C5b-9 ELISA on IgM; NHS pre-incubated with 0.001 to 4 µM protein) [1] | further results |
| --- | --- | --- |
| CihC of B. recurrentis A17 (aa 20-356) (natural protein) | 62 nM |  |
| CihC-C of B. recurrentis (aa 195-356) (domain or fragment) | 272 nM |  |
| CihC/FbpC of B. hermsii FRO (aa 21-374) (natural protein) | 56 nM |  |
| CihC/FbpC ortholog of B. parkeri (aa 25-349) (natural protein) | 63 nM |  |
| CihC/FbpC ortholog of B. turicatae (aa 21-363) (natural protein) | 95 nM |  |
| human glu-plasminogen (natural protein) |  | Kd [2]: 93.1 nM; Kd [3]: 62.7 nM; Kd [4]: 24.2 nM; Kd [5]: 284 nM |
| B1 | 75 nM |  |
